This is an account of results in patent US20180282403A1, “AGENTS FOR REDUCING THE ACTIVITY OF GDF15” (GENAGON THERAPEUTICS AB, priority 2015, published 2018).

Common to all, as to type: cell-based
In assay [1] the target is T1, QRFPR (Homo sapiens, UniProt Q96P65).
T1 construct: endogenous in cells
T1 sequence (Q96P65 1-431): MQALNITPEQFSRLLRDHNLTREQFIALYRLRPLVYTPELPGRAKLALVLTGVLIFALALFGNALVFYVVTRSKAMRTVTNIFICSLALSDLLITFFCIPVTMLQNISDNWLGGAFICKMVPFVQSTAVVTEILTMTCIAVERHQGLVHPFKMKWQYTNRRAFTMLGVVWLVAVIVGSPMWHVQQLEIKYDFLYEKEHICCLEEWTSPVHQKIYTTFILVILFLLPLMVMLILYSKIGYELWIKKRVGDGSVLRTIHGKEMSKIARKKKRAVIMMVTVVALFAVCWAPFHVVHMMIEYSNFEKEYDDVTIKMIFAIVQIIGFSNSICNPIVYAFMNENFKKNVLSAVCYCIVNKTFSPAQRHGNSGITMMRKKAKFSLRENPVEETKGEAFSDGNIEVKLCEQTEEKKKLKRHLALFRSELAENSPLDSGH
The experiment in a line: QRFPR levels after prolonged GDF15 stimulation with or without proteasome inhibition. Conditions: GDF15 18 hrs, absence of MG132; FIG. 6B. Here is the method: This effect is not seen in cells which are treated with MG132 (FIG. 6D).

The test system of assay [2] is CD14+ cells. Briefly: Cytokine secretion by LPS-stimulated CD14+ cells (Proseek assay). Conditions: LPS stimulated CD14+ cells incubated with GDF15. Here is the method: CD14+ cells where isolated and cultured in the presence or absence of GDF15 in a LPS stimulated culture.
Buffy coat cell suspension or heparinized blood samples were diluted with sterile, room temperature PBS. Peripheral blood samples are diluted 1:1, whereas buffy coats are diluted to a final volume of 120 ml (in a standard buffy coat this will result in slightly greater dilution than 1:1). The diluted cell suspension was layered onto Ficoll Paque PLUS. For one buffy 4×15 ml aliquots are used (30 ml of diluted cell suspension/tube). Cells were centrifuged at 400×g for 30 min at room temperature and transferred to a new 50 ml tube. Cells were washed once and resuspended in 20 ml PBS.
Mononuclear cell suspension was pelleted by centrifugation. Cells were resuspended in Stemcell buffer at a concentration of 10^8 cells/ml and transferred to a round bottom 14 ml tube. EasySep Positive Selection cocktail at was added at 100 μl/ml cells, mixed by gentle pipetting, and incubated at room temperature for 15 min. 50 μl EasySep Magnetic Nanoparticles per 1 ml cells were added and mixed, and incubated at room temperature for 10 min. Stemcell recommended medium was added to bring the cell suspension to a total volume of 5 ml and mixed by gently pipetting. The tube (without cap) was placed into the magnet and set aside for 5 min. After 5 minutes the supernatant was discarded. CD14+ labelled cells will remain inside the tube. The tube was removed from the magnet and add 5 ml Stemcell recommended medium was added and mixed by gently pipetting. The tube (without cap) was placed into the magnet and set aside for 5 min. The was step was repeated before the cells were resuspended in 5 ml complete RPMI medium. 50 μl of the CD14+ cell suspension was removed and counted to determine total cell number after dilution in Trypan blue solution and mounting on Fast Read 102 Counting Slides.
Adjust CD14+ cell suspension volume to a concentration of 0.833×10^6 cells/ml in complete RPMI medium. 300 μl of cell suspension is added to wells in a 48 well plate well (0.25×10^6 cells per well), and allowed to adhere for 90 min in an incubator at 37° C. Non-adherent cells were removed by removal of the supernatant after gently pipetting the medium. Cells were washed once with 300 μl pre-warmed complete RPMI medium and the medium aspirated off. 300 μl pre-warmed complete RPMI medium was added to each well and the cells were incubate overnight (20-24 h) in a cell incubator at 37° C.
A 17× stock solution of the desired GDF15 modulatory substances was diluted in complete RPMI. (20 μl of substance/well assayed). 20 μl of modulatory substance or medium/carrier (negative control) was added to each well and mixed by gentle pipetting. Cells were incubated for 30 min in a cell incubator at 37° C. A 17×GDF15 solution was prepared by diluting a 100 μg/ml stock solution to a concentration of 8.5 μg/ml (final concentration in culture 0.5 μg/ml) in complete RPMI. 20 μl of diluted GDF15 was added per well, and incubated overnight (18-20 h) in a cell incubator at 37° C.
A 18×LPS solution was prepared by diluting the LPS stock solution to a concentration of 18 ng/ml (final concentration in culture 1 ng/ml) in complete RPMI. 20 μl of LPS or medium (negative control) was added to each well and mixed by gentle pipetting. […]
Secreted proteins from cell cultures where quantified using multiplexed proximity extension assay, Proseek (Assarsson E et al PlosOne 2014) by Olink Proteomics AB (Uppsala Sweden). […]

Assay [3] concerns the target T1, QRFPR. The experiment in a line: In situ PLA detection of RAB4-QRFPR double positive endosomes. Conditions: GDF15 stimulation alone; FIG. 7. Here is the method: An assay was developed to detect the proximity of RAB4-QRFPR using antibodies against RAB4 and QRFPR.
In short, the cells were serum starved overnight then pre-incubated with blocking antibodies towards extracellular parts of QRFPR for 2 hrs prior to GDF15 treatment (1 μg/ml) for 30 minutes. The levels of formed RAB4-QRFPR complexes were measured by visualization of formed RCA products using the Duolink is PLA system (see FIG. 11).

Take “GDF15: Growth and differentiation factor 15, from mammalian source or recombinant from E. coli (Abcam, Biovision)”: the “levels of QRFPR” value in assay [1] is “dramatically reduced the levels of QRFPR”. In addition, in assay [2], the “LPS response secretion of IL12” value is recorded as “reduced” and the “LPS response secretion of TNF” value is recorded as “reduced”. Also, the “RAB4-QRFPR double positive endosomes” value in assay [3] was “formation of RAB4-QRFPR double positive endosomes was detected”.
